Experiments:
Experiment in all cases: pull-down; GST pulldown; equal molars of GST-Srs2-CT or GST-Rad30-PIP and His6-Pol30 coincubated overnight at 4°C; Western blot with anti-His6 and anti-GST
Details in all cases: both partners purified
His6-tagged Pol30 = biological target: T1, His6-tagged Pol30 (S. cerevisiae, UniProt P15873 1-258)
T1 construct: Pol30 (PCNA), S. cerevisiae, POL30 ORF cloned into BamHI-SacI sites of pET30a; also called His6-Pol30; PCNA; source: E. coli BL21, purified (Ni Sepharose)
T1 sequence (looked up): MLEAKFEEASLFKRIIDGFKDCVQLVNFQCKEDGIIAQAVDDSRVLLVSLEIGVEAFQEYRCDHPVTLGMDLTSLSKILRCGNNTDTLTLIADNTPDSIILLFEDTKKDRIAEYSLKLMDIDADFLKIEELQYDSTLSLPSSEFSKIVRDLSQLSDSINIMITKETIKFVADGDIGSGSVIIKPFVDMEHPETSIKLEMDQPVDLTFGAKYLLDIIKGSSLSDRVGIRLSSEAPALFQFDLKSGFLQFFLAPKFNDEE

His6-tagged Pol30-I128A = biological target: T2, His6-tagged Pol30-I128A (S. cerevisiae, UniProt P15873 1-258, I128A)
T2 construct: Pol30 (PCNA), S. cerevisiae, POL30 ORF in pET30a, mutant derivative; source: E. coli BL21, purified (Ni Sepharose)
T2 sequence (looked up): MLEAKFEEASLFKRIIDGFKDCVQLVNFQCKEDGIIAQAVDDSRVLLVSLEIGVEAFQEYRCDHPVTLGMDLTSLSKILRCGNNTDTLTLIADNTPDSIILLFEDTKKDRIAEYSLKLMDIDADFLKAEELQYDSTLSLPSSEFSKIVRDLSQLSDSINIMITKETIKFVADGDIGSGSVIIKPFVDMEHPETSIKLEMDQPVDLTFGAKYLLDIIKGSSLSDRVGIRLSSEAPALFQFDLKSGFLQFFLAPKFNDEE

His6-tagged Pol30-K164R = biological target: T3, His6-tagged Pol30-K164R (S. cerevisiae, UniProt P15873 1-258, K164R)
T3 construct: Pol30 (PCNA), S. cerevisiae, POL30 ORF in pET30a, mutant derivative; The methods describe only the wild-type pET-Pol30; source: E. coli BL21, purified (Ni Sepharose)
T3 sequence (looked up): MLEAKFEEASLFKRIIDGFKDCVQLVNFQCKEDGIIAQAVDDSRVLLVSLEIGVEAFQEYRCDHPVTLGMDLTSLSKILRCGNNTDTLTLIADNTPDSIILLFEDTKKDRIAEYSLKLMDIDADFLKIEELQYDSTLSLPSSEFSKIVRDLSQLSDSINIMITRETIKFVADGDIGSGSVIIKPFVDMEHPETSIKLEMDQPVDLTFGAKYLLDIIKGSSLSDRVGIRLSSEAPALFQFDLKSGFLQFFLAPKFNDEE

His6-tagged Pol30-A171D = biological target: T4, His6-tagged Pol30-A171D (S. cerevisiae, UniProt P15873 1-258, A171D)
T4 construct: Pol30 (PCNA), S. cerevisiae, POL30 ORF in pET30a, mutant derivative; The methods describe only the wild-type pET-Pol30; source: E. coli BL21, purified (Ni Sepharose)
T4 sequence (looked up): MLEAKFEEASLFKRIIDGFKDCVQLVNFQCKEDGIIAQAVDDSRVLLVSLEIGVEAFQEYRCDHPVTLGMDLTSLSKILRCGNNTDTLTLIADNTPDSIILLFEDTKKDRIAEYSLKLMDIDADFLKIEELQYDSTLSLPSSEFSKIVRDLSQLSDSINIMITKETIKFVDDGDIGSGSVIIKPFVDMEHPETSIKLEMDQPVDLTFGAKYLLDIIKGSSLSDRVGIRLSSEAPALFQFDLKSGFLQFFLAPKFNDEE

Measured: binding result

B1: GST-tagged Rad30-PIP (domain or fragment, S. cerevisiae, UniProt Q04049 515-632, looked up)
chain: VVDMFGNQVHTFKSSAGKEDEEKTTSSKADEKTPKLECCKYQVTFTDQKALQEHADYHLALKLSEGLNGAEESSKNLSFGEKRLLFSRKRPNSQHTATPQKKQVTSSKNILSFFTRKK
notes: Rad30 (DNA polymerase eta), S. cerevisiae, residues 515 to 632, cloned into BamHI-EcoRI sites of pGEX6; also called GST-Rad30-PIP; Rad30-PIP domain; source: E. coli BL21, purified (glutathione Sepharose)
binds: all assays above

B2: GST-tagged Srs2 C-terminal domain (Srs2-CT) (domain or fragment, S. cerevisiae, UniProt P12954 1107-1174, looked up)
chain: HNPDDTTVDNRPIISNAKFLADAAMKKTQKFSKKVKNEPASSQMDIFSQLSRAKKKSKLNNGEIIVID
notes: Srs2 DNA helicase, S. cerevisiae, residues 1107 to 1174, cloned into BamHI-EcoRI sites of pGEX6; Holds the atypical PIP box and the SIM; also called GST-Srs2-CT; Srs2 C terminus; source: E. coli BL21, purified (glutathione Sepharose)
binds: His6-tagged Pol30 | His6-tagged Pol30-I128A | His6-tagged Pol30-K164R
